Measured values published in PMC5823669, “Multi-chaperone function modulation and association with cytoskeletal proteins are key features of the function of AIP in the pituitary gland” (Oncotarget, 2018).

T1: GST-tagged human AIP p.R304* (human, UniProt O00170 1-303)
T1 construct: AIP, human, UniProt O00170; natural nonsense variant c.910C>T, p.R304*: stop codon in place of R304, truncated protein ending at residue 303; The C-terminal limit 303 follows from the printed p.R304*; also called GST-AIP R304*; not shown: GST, N-terminal, kept
T1 sequence (looked up): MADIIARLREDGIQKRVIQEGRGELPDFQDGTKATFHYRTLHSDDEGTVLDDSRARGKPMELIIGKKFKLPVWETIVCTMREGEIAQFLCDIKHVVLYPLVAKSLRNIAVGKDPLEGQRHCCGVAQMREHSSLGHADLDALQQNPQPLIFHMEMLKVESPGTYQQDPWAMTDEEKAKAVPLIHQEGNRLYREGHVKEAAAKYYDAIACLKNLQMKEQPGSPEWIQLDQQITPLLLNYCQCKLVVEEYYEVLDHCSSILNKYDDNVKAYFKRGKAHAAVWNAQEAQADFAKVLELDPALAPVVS

T2: GST-tagged human AIP p.A299V (human, UniProt O00170 1-330, p.A299V)
T2 construct: AIP, human, UniProt O00170; also called GST-AIP A299V; not shown: GST, N-terminal, kept
T2 sequence (looked up): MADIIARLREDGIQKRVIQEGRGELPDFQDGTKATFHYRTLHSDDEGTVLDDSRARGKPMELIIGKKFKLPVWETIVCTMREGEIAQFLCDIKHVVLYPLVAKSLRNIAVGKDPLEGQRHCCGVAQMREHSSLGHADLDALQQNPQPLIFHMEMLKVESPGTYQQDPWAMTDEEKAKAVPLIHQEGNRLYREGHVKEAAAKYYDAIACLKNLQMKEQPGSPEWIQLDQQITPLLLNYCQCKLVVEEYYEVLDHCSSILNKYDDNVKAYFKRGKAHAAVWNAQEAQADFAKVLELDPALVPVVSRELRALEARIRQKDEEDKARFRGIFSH


Experiments:
[1] = target: T1, GST-tagged human AIP p.R304*; assay: affinity purification with mass spectrometry; GST pull-down: 10 ug of purified GST-AIP bait (WT or variant) against 2 mg total protein of GH3 cell lysate; eluates of four experiments pooled; TMTsixplex labelling, Orbitrap MS; peptide intensities minus the GST control, variants given as fold of the WT experiment (WT = 1); conditions: one partner purified
[2] = target: T2, GST-tagged human AIP p.A299V; assay: as above; conditions: one partner purified

Binder | normalized intensity value (fold of the WT AIP pull-down) [1] | normalized intensity value (fold of the WT AIP pull-down) [2]
TBB2A_RAT Tubulin beta-2A chain (Tubb2a) (natural protein, R. norvegicus (endogenous in GH3), UniProt P85108 1-445, looked up, Tubulin beta-2A chain, rat, UniProt P85108; source: endogenous, GH3 cell lysate) MREIVHIQAGQCGNQIGAKFWEVISDEHGIDPTGSYHGDSDLQLERINVYYNEAAGNKYVPRAILVDLEPGTMDSVRSGPFGQIFRPDNFVFGQSGAGNNWAKGHYTEGAELVDSVLDVVRKESESCDCLQGFQLTHSLGGGTGSGMGTLLISKIREEYPDRIMNTFSVMPSPKVSDTVVEPYNATLSVHQLVENTDETYSIDNEALYDICFRTLKLTTPTYGDLNHLVSATMSGVTTCLRFPGQLNADLRKLAVNMVPFPRLHFFMPGFAPLTSRGSQQYRALTVPELTQQMFDSKNMMAACDPRHGRYLTVAAIFRGRMSMKEVDEQMLNVQNKNSSYFVEWIPNNVKTAVCDIPPRGLKMSATFIGNSTAIQELFKRISEQFTAMFRRKAFLHWYTGEGMDEMEFTEAESNMNDLVSEYQQYQDATADEQGEFEEEEGEDEA | 0.3 fold of WT | 
NDKA_RAT Nucleoside diphosphate kinase A (Nme1) (natural protein, R. norvegicus (endogenous in GH3), UniProt Q05982 1-152, looked up, Nucleoside diphosphate kinase A, rat, UniProt Q05982; also called NME/NM23 nucleoside diphosphate kinase 1; source: endogenous, GH3 cell lysate) MANSERTFIAIKPDGVQRGLVGEIIKRFEQKGFRLVGLKFIQASEDLLKEHYIDLKDRPFFSGLVKYMHSGPVVAMVWEGLNVVKTGRVMLGETNPADSKPGTIRGDFCIQVGRNIIHGSDSVESAEKEISLWFQPEELVDYKSCAQNWIYE |  | 0.2 fold of WT
TBB5_RAT Tubulin beta-5 chain (Tubb5) (natural protein, R. norvegicus (endogenous in GH3), UniProt P69897 1-444, looked up, Tubulin beta-5 chain, rat, UniProt P69897; also called tubulin beta chain; source: endogenous, GH3 cell lysate) MREIVHIQAGQCGNQIGAKFWEVISDEHGIDPTGTYHGDSDLQLDRISVYYNEATGGKYVPRAILVDLEPGTMDSVRSGPFGQIFRPDNFVFGQSGAGNNWAKGHYTEGAELVDSVLDVVRKEAESCDCLQGFQLTHSLGGGTGSGMGTLLISKIREEYPDRIMNTFSVVPSPKVSDTVVEPYNATLSVHQLVENTDETYCIDNEALYDICFRTLKLTTPTYGDLNHLVSATMSGVTTCLRFPGQLNADLRKLAVNMVPFPRLHFFMPGFAPLTSRGSQQYRALTVPELTQQVFDAKNMMAACDPRHGRYLTVAAVFRGRMSMKEVDEQMLNVQNKNSSYFVEWIPNNVKTAVCDIPPRGLKMAVTFIGNSTAIQELFKRISEQFTAMFRRKAFLHWYTGEGMDEMEFTEAESNMNDLVSEYQQYQDATAEEEEDFGEEAEEEA | 0.2 fold of WT | 
